Assay [1] concerns the target T1, human B7-H7 recombinant protein (human, UniProt Q9UM44 23-344).
T1 construct: also called human B7-H7 protein
T1 sequence (looked up): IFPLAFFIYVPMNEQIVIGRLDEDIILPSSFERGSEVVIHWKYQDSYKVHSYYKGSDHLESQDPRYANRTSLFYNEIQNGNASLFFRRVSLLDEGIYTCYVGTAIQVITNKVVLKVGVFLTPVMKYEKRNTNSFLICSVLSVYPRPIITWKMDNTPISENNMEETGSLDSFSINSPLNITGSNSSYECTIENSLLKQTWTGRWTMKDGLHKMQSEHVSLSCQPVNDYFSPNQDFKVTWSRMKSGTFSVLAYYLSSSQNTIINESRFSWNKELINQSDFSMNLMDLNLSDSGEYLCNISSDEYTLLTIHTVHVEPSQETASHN
The assay is described as follows: BLI (Octet), antibody captured on AHC sensor, human B7-H7 in solution, 1:1 global fit. The protocol:
The binding kinetics between antigen and antibody was analyzed using an Octet Red 96e (Fortebio) molecular interaction analyzer by biolayer interferometry (BLI) technology.
For determining the affinity of antibodies for antigens, the rotary speed of the sensor was set at 1000 rpm. AHC sensors (Fortebio, #18-5060) placed in one column were first equilibrated in a test buffer for 10 minutes, and then used to capture the anti-B7-H7 antibodies at a capture height of 0.7 nm; and after being equilibrated in the buffer for 120 s, the AHC sensors bound to human B7-H7 (concentrations: 50-3.125 nM and 0 nM) with 2-fold gradient dilution for 180 s and dissociated for 300 s. The AHC sensors were finally regenerated by immersing in a 10 mM glycine-hydrochloric acid solution with pH 1.5 to elute the protein bound to the sensors.
For data analysis using Octet Data Analysis software (Fortebio, version 11.0), 0 nM well was used as the reference well, reference subtraction was performed, “1:1 Global fitting” method was selected for data fitting, the kinetic parameters of the binding of the antigen to the antigen-binding protein were calculated, and the kₒₙ (1/Ms) value, kdis (1/s) value and KD (M) value were obtained.

In assay [2] the target is T2, biotinylated human B7-H7 protein (Acro Biosystems, B77-H82F5) (human, UniProt Q9UM44 23-344, biotinylated).
T2 construct: Bought soluble protein; also called biotin-B7H7 protein
T2 sequence (looked up): T1 sequence (looked up)
The assay is described as follows: flow cytometry, blocking of biotinylated human B7-H7 binding to CHO-K1/KIR3DL3 cells. The source says: (§1) This example was intended to study the in vitro blocking activity of human anti-B7-H7 antibodies against the binding of human B7-H7 to its receptor KIR3DL3. A CHO-K1 cell (CHO-K1/KIR3DL3, Harbour BioMed US, Inc.) overexpressing human KIR3DL3 was used in experiments at the cellular level where human B7-H7/human KIR3DL3 binding was blocked. Briefly, the CHO-K1/KIR3DL3 cells were digested and resuspended in PBS containing 2% BSA. The cells were adjusted to a cell density of 1×10⁶ cells/mL. […] The cells were incubated at 4° C. for 1 hour in the dark. […] The cells were rinsed twice by adding pre-chilled PBS containing 2% BSA at 100 μL/well, and were centrifuged at 500 g at 4° C. for 5 minutes, and the supernatant was discarded. A fluorescent secondary antibody (PE Streptavidin, BD, Cat #: 554061, 1:200) was added at 100 μL/well, and the cells were incubated at 4° C. for 30 minutes in the dark. The cells were washed twice by adding pre-chilled PBS at 200 µL/well, and centrifuged at 500 g at 4° C. for 5 minutes, and the supernatant was discarded. Finally, the cells were resuspended in pre-chilled PBS at 200 μL/well, and the fluorescence signal values were read using an ACEA Novocyte3000 flow cytometer. IC50 was calculated.

In assay [3] the target is T2, biotinylated human B7-H7 protein (Acro …). The assay is described as follows: BLI epitope competition on SA-captured biotinylated B7-H7; competitor (first antibody) PR003249. The protocol:
(§2) Epitope competition experiments were performed on the anti-B7-H7 antibodies using the ForteBio Octet Red96e platform with the same experimental buffer as described above. […] After being equilibrated in a buffer for 120 s, the sensors were immersed in various antibodies diluted to 100 nM for 240 s, and the final signal of the antibody binding to B7-H7 was recorded as the 100% signal for that antibody. Second step, epitope competition experiment: B7-H7 was captured using SA sensors at a capture height of 0.25 nm. The sensors were immersed in a first antibody (concentration: 100 nM) for 240 s, then the SA sensors were immersed in a mixture of the first antibody and a second antibody (final concentration of both antibodies: 100 nM) for 240 s, and the difference in signals before and after immersing the sensors in the mixture of the two antibodies was recorded as the signal for that antibody as the second antibody. The inhibition rate was calculated by the following equation, […]

Assay [4] addresses T3, human B7-H7 on the cell surface (human, UniProt Q9UM44 23-414).
T3 construct: whole, on cells; also called hB7-H7; hu B7-H7
T3 sequence (looked up): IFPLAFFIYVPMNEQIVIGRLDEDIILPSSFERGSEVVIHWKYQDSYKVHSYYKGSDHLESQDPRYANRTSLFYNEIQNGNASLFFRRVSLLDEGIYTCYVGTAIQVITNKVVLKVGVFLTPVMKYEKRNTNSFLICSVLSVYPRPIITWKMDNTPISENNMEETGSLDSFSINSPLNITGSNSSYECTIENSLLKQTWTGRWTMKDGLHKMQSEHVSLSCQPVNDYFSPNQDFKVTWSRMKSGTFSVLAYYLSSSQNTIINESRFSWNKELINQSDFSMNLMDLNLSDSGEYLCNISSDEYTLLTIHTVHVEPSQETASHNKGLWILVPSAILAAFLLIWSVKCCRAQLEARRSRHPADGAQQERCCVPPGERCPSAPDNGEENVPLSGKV
The assay is described as follows: flow cytometry, HCC827 cells. The protocol: (§3) This example was intended to study the in vitro activity of H2L2 monoclonal antibodies against human B7-H7 in binding to human/cynomolgus monkey B7-H7. Since homologous molecules of B7-H7 were not present in mice, the detection was not performed. […] The cells were adjusted to a cell density of 1×10⁶ cells/mL, respectively. The cells were seeded in a 96-well V-bottom plate (Corning, #3894) at 100 μL/well, and the antibody to be tested at 2× final concentration with 3-fold concentration gradient dilution was then added at 100 μL/well. The cells were incubated at 4° C. for 2 hours in the dark. After the incubation, the cells were rinsed twice by adding pre-chilled PBS containing 2% BSA at 100 μl/well, and centrifuged at 500 g at 4° C. for 5 minutes, and the supernatant was discarded. […] The cells were washed twice by adding pre-chilled PBS containing 2% BSA at 100 μL/well, and centrifuged at 500 g at 4° C. for 5 minutes, and the supernatant was discarded. Finally, the cells were resuspended in pre-chilled PBS containing 2% BSA at 200 μL/well, and the fluorescence signal values were read using an ACEA Novocyte3000 flow cytometer.

Assay [5] has as its target T2, biotinylated human B7-H7 protein (Acro …). Kind of assay: flow cytometry, blocking of biotinylated human B7-H7 binding to HEK-293/CD28H cells. The protocol:
as §1, with “CD28H. […]” for “KIR3DL3. A CHO-K1 cell (CHO-K1/KIR3DL3, Harbour BioMed US, Inc.) overexpressing human KIR3DL3 was used in experiments at the cellular level where human B7-H7/human KIR3DL3 binding was blocked. Briefly, the CHO-K1/KIR3DL3 cells were digested and resuspended in PBS containing 2% BSA.”, “μL/well,” for “µL/well,”

The target is the same in assay [6]. Kind of assay: BLI epitope competition on SA-captured biotinylated B7-H7; competitor (first antibody) PR003251. Here is the method: as §2
The target of assay [7] is T3, human B7-H7 on the cell surface. Kind of assay: flow cytometry on LS180 cells, expression supernatant diluted 1:1, 1:10, 1:100.
The target is the same in assay [8]. Kind of assay: flow cytometry, LS180 cells. Here is the method: as §3
The target in assay [9] is T4, Human KIR3DL3 protein (Sino Biological, 16055-H08H) (human, UniProt Q8N743 26-322).
T4 construct: Coated on the ELISA plate
Kind of assay: ELISA, coated KIR3DL3, biotinylated protein detected with StrepTactin-HRP.
Experimental: After the liquid was discarded, the plate was washed 3 times with a PBS buffer, 200 μl of PBS blocking solution containing 1% BSA was added, and the plate was incubated for 1 hour at room temperature. The blocking solution was discarded, and the plate was washed 3 times with a PBS buffer. […] The antibodies to be tested were subjected to 3-fold concentration dilution from 100 nM, with a total of 8 gradient concentrations. 100 μl of the diluted antibody was added to each well, and the plate was incubated at 4° C. overnight.

Positions count from the first letter of the chain named. Names may count otherwise.

T4 sequence (Q8N743 26-322 limits assumed): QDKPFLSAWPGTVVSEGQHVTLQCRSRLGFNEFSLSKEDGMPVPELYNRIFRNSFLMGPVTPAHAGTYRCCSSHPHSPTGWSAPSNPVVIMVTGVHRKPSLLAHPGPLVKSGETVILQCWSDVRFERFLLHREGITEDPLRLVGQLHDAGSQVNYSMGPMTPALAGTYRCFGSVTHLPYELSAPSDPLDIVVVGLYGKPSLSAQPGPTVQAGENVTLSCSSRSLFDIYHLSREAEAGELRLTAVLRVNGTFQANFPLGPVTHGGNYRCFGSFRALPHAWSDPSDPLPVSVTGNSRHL

B1: PR003181 (antibody, human IgG4 S228P, kappa)
heavy: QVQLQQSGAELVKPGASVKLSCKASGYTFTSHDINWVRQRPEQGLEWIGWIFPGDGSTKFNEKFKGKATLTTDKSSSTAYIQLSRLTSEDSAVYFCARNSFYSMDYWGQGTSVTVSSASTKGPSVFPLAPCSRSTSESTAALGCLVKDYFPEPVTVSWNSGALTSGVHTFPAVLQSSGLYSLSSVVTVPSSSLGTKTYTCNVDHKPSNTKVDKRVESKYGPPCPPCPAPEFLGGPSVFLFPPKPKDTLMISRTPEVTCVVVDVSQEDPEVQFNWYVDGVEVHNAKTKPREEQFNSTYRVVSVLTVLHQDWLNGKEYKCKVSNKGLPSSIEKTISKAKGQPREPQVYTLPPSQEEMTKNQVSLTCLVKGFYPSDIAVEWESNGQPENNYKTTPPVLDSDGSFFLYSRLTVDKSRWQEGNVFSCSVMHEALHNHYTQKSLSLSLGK
light: DIVMSQSPSSLAVSAGEKVTMSCKSSQSLLNSRTRKNQLAWYQQKPGQSPKLLIYWASTRESGVPDRFTGSGSGTDFTLTISSVQAEDLAVYYCKQSYNLRTFGGGTKLEIKRTVAAPSVFIFPPSDEQLKSGTASVVCLLNNFYPREAKVQWKVDNALQSGNSQESVTEQDSKDSTYSLSSTLTLSKADYEKHKVYACEVTHQGLSSPVTKSFNRGEC
notes: also called Control antibody 1; positive control
For the molecule B1, in [1], the Kd turned out to be 26.3 nM, the koff was 0.00205 s⁻¹ and the kon was 78100 M⁻¹ s⁻¹. In assay [2], the IC50 is 10.4 nM and the “Maximum inhibition rate (%)” value stood at 96.7%. In addition, the “Competitive inhibition rate (%)” value in [3] stood at 77%. Moreover, in assay [4], a half-maximal response (EC50) required 2.55 nM and the “Maximum MFI” value came out at 25100 MFI. Further, the IC50 in assay [5] was 71.7 nM. Also, in [6], the “Competitive inhibition rate (%)” value came out at 5.32%.

B2: PR004489 (antibody, human IgG1, kappa, L234A L235A, V domains shown)
VH: QVQLVESGGGVVQPGRSLRLSCAASGFTFSNYGMHWVRQVPGKGLEWVAVIWYEGSEKDYADSVKGRFTISRDNSKNTLYLQMNSLRVEDTAVYYCAKDLISGIYYVDHWGQGTLVTVSS
VL: DIQMTQSPSSLSASVGDRVTITCRASQGISNYLAWYQQKPGKVPKLLIYAASTLQSGVPSRFSGSGSGTDFTLTISSLQPEDVATYYCQKYNAAPFTFGPGTKVDIKR
notes: Variant of PR003259, H:D54E; L:S93A; Human IgG1 LALA; expressed supernatant only
Regarding B2, the binding result in assay [7] is recorded as “binds”.

B3: PR004490 (antibody, human IgG1, kappa, L234A L235A, V domains shown)
VH: B2 VH with E54D, G55A
VL: B2 VL with A93S
notes: Variant of PR003259, H:G55A; Human IgG1 LALA; expressed supernatant only
Take B3: the binding result in assay [7] was “binds”.

B4: PR004492 (antibody, human IgG1, kappa, L234A L235A, V domains shown)
VH: B2 VH with E54D, G55A
VL: B2 VL
notes: Variant of PR003259, H:G55A; L:S93A; Human IgG1 LALA
For the molecule B4, in assay [8], the concentration for a half-maximal effect (EC50) was 0.052 nM and the “Maximum MFI” value came to 22900 MFI.

B5: PR004493 (antibody, human IgG1, kappa, L234A L235A, V domains shown)
VH: B2 VH with E54D
VL: B2 VL with N92Q, A93S
notes: Variant of PR003259, L:N92Q; Human IgG1 LALA; expressed supernatant only
As to B5, the binding result in assay [7] is “binds”.

B6: PR004491 (antibody, human IgG1, kappa, L234A L235A, V domains shown)
VH: B2 VH with E54D, G55A
VL: B2 VL with N92Q, A93S
notes: Variant of PR003259, H:G55A; L:N92Q; Human IgG1 LALA
With B6, in assay [8], a half-maximal effect (EC50) was put at 0.066 nM and the “Maximum MFI” value came to 22800 MFI.

B7: PR004494 (antibody, human IgG1, kappa, L234A L235A, V domains shown)
VH: B2 VH with E54D
VL: B2 VL
notes: Variant of PR003259, L:S93A; Human IgG1 LALA; expressed supernatant only
Consider B7, for which the binding result in [7] is “binds”.

B8: Biotin-B7H4 protein (Acro Biosystems, B74-H82E2) (ligand, UniProt Q7Z7D3 29-258, looked up)
chain: FGISGRHSITVTTVASAGNIGEDGILSCTFEPDIKLSDIVIQWLKEGVLGLVHEFKEGKDELSEQDEMFRGRTAVFADQVIVGNASLRLKNVQLTDAGTYKCYIITSKGKGNANLEYKTGAFSMPEVNVDYNASSETLRCEAPRWFPQPTVVWASQVDQGANFSEVSNTSFELNSENVTMKVVSVLYNVTINNTYSCMIENDIAKATGDIKVTESEIKRRSHLQLLNSKA
modifications: biotinylated
notes: also called negative control protein
For the molecule B8, the binding result in assay [9] is given as “no binding (tested: 6 µg/ml)”.

B9: PR004483 (antibody, human IgG1, kappa, L234A L235A, V domains shown)
VH: QVQLVESGGGVVQPGRSLRLSCAASGFTFSDYGIHWVRQAPGKGLEWVAVIWYDASDKYYADSVRGRFTISRDNSKNTLSLQMNSLRVEDTAVYYCARDRSSGAMGYFVYWGQGTLVTVSS
VL: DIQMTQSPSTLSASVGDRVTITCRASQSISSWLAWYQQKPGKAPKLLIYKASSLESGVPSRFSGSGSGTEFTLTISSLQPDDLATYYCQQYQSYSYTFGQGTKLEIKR
notes: Variant of PR003249, H:G55A; L:N92Q; Human IgG1 LALA
With B9, in [8], a half-maximal effect (EC50) was put at 0.044 nM and the “Maximum MFI” value worked out at 25100 MFI.

B10: PR004484 (antibody, human IgG1, kappa, L234A L235A, V domains shown)
VH: B9 VH
VL: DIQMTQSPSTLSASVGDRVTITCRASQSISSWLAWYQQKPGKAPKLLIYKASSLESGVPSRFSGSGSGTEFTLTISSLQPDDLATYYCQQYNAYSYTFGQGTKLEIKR
notes: Variant of PR003249, H:G55A; L:S93A; Human IgG1 LALA
B10: in assay [8], it took 0.04 nM to reach a half-maximal effect (EC50) and the “Maximum MFI” value came out at 24600 MFI.

The values above are taken from patent US20250136696A1 (HARBOUR BIOMED SHANGHAI, published 2025).
